Results from the NTF2 design screens of Basanta et al. (2020).

Experiment: protease stability score; higher = more stable; yeast display proteolysis, trypsin and chymotrypsin;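 further: log10 excess protease needed over predicted unfolded state with 0 meaning unfolded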

| Sequence | protease stability score |
| --- | --- |
| DHEDLVKRFIETMKEIYHTGNFRELANLADEDVQIHVGDKTVTGREHLRKEQETTERHADHATMRVDEVEVDGDKARVVFTVTIQVNGEKRSDRLVVEFRVHNGQLRIKSMRQQ | 1.05 |
| DHEDMEKLAKDLNKAIEQGDPDRMRDMADENVDAKIGDKVFHGDENVRKMIKSIRDHADHLRVKDWRVKGEKIVIDVHVNHNGKSAKLDLKAQAHNGTFTTLKIDPQFQRSMES | -0.234 |
| DHEDRAKDMLRRYEEALKSGNPDEARKLADEDVNFNIGDKRYRGRDDLATLVKQIRDSADHISITLETFTVQGNTITMDVSVVVDVNGKHISRRYNIIAQVDNGTLKLKSVQEH | -0.015 |
| DHEDRELAKEWEKALHSGDRDQVHELMDPNASVRIGDKVFTGREEVSKHLKKIKDEMRIHIHSVHLEVQNGEVDNKNDLVADVNGVPVRVTVVVRITAQNGKMKELDMRFDPRQKEQMDR | 0.093 |
| DHEEKAKKFFDDLLRAVKHNDETQLERLFDKNVRFNVGEHNFRGREEFVKMVRTMVEQVDHVTATIVSIETNGDKVNLVAQWDMSHNGNSKRIRVLVVLDDNNGRVVAREMSEK | 2.2 |
| DHEELEVVKEWFDAIQKGDPKTIQELADKDAEFQIGDKTVRGREHLVETVERRKKHMEFQIRIDRMDVHGDKAVIDVTMSNKHNGQPSQDRYNVRVELHNGKIQNVDQSKRS | -0.033 |
| DHEEMEKIAEEIIDILRTNDPDQMERLADENVRVRIGDKEVHGRESVSHAAQQLHDRVDHFDLKSWRRNGDKFQFEFVEHFNGQSRNVQVEMRFENGKIRHIVYTSR | 0.226 |
| DHEEQMEKFIKTLKKLMKNNDWETWASLADPNAEARYGDSEYHGREKIVTHMRKLQEHVDHADLKFRSVSLRNGEVTMRISFHVKVNGTDQSHEAKLVLEIDNGRAVIKKMVLD | 0.795 |
| DHEESKDIAEKAVKAIETGDPDKFVSNMDKDASARIGDKTYHGRENLRKAMEDFRNQVDHLRVQSYKVSGNTQKLDMRADFNGRTRVITVVMQMENGRVSFIRVHIE | -0.359 |
| DHEETFRKLLHDLDEAMRRGDTKRIQDLADENVQLEVGDKTIHGREEFAKFWMDLQKRVDHLELHVEHIHVSGDRIRAKIVLVFHHNGQTRTRSAQVVLVQENGRNVFTKIQFN | 1.17 |
| DHEEVHKLAKKLAEAVVNGNEDRIRKFLKPDVEYKNIDEEYQGKQVAEVIVKTIKTKGVRLKVEEVKVEGDTVEAQYVFQVNGTKVTAHVRAEAKGGRVDKWQVHISDTAKKLRKEG | 1.15 |
| DHEEVKEFNKTLIKILETNDSKKLHELMDPNARIQIGDKDVSGRHNIHKLAEENKRRVDHFRVSRIDYHNGKVRADFTYVVNGQKHRVDMDIDITNGKIKRIIYHQR | 0.011 |
| DHEEVRQYEDAVEAEETGDKEKLQRYMDPNVKFHVGDKTLHGREDVARKQKEDRERIRIRYKSMDIKVRGDKVDFKMSFVVNHNGRPQRETRTFTIDLHNGTFKHADWKESG | -0.014 |
| DHEFAKDAKEVLEENDFEREKQLFDKDASAHIGNTTYHGHEHVQTAIDIRKKRIDHREFHSITIHGDKVDVDLIVQFNGRKIRFDLTIQVHNGRVKEIKFQATNPSQERQLDEIMS | 1.12 |
| DHEIRHFAEQVVRVLNTGDEEEIEKLFDPNARITVGDKSYHGMDDYARKVKQTRDEMRFTIDVKDLKVSGDSVSMRAHVVHDHNGTPQKDTEQREFRVQGDRVKHMDVKSDG | -0.395 |
| DHEKNKQHVDQFNEILKNGNPDEANKLADKDVEIEVGDKRYHGHEDFRKYQEEIAEQADHVKVTEVEVDGNKANVDVVLRINGKNLRRTFLLQIHNGRLKRLSFDPDQWDKARG | 0.91 |
| DHELEELAKRFLEAVLTGDEDQLRRNMDPNVKVDVGDKTVKGREEAAREIHETVHRSRIHVNHVDFRLNNGRETMRMDVVVDHNGRPQKDTWKMNQDVQGDKVKNINFRTDG | -0.353 |
| DHELENLVEKIMSALTRNNPEDIRSLFDPNARFNIGDKTWNGMDRYITELKKEVDEWDMSVELHSVDIQGNKASAHVEQTAHHDGEPDSFEYTMKLDFHNGKARRQRVNSRK | -0.248 |
| DHELVEQLHRFWTAVDENDPDKLKENADPNAHFVIGDKTYRGREDFARTIERELDTMEMRFDTMTVTIHNGRLDAKFRYVVRHNGNPQQHKVDAKAEMSNGKIQRLNMQKRP | -0.197 |
| DHENKKRVEEFLKALERNDPERLNHLMDPNVNIIVGDQRFHGREDAARNMAHEQKEQRFEVEDYRISVHGDDVRVEMIVQAEINGRPFRFTLIVYARIHDGRIQTIEFRIDEDEKRRMDQ | 0.895 |
| DHEQLKNLKELLEAVQTGDEDQVKELMDPNAKFEYGNKSFHGRESMESYLKKLENEARVTVRSVTVRVSNGTISADVHLIFEVNGQPITVDAKFEAELHNGRVKHLYVRMPEETMKEIQG | -0.312 |
| DHEREAKHFVDDWVRALRTGDSKTIEELMDPNVTLRVGDQKLHGRSQNSDQVRRWKERVDTIDVKVRSINKTGDHMRVHVDVVMDINGEKDNKELVINFDKHNGRLIVKHASYG | -0.113 |
| DHERILQELLDRAVKMLNTGNEEHARKLAPPHARMVVGDKTIHGMENIAHEWQKVQDRVDHVEARVHSMSVDGDKFVVIVEVTLDINGRKQTQVVTFIAVKNNGQVYVKQINIS | -0.162 |
| DHERLKEFIKIQQENNPDQLRNQMDPNVKARVGDKEFKGREQVVKWLKRIMDQADHIHYDDLKSQGNSVTINAVVEVNGKSFQYNMVVEFHNGRIREIKVEVRNHRVKEILERIEG | 1.62 |
| DHERLRKLAKDFVKILKHGDPDRMRELVDKDVRVQIGDKEVHGREKVDEMVENIRHRADHIDFTSFHASNGRVTVDVVVNVDGKNTRVTWRIVMSNGRVKMIQVTDG | 1.82 |

| Sequence | protease stability score |
| --- | --- |
| DHERVKDHATDLAKILRQNNERELKKLADKDVHFQIGDKTYHGREKFEEWVHELINTVDHIRITDFDVDGDRVRIDADFDINGKTVRVVIVVKLKNGKIKSQKVQFRDKDLQRKFNS | -0.152 |
| DHETHMEKFFEDQQKIRNKGDEDKVRNLFDPNARATYGDKTYQGREQIDKFENDVLRRVDHVNVQLRNVRVHNGRADFDARVVFKVNGRHERNHIRITVEINNGRIVIQSVHYG | 0.141 |
| DHETQNDLATEIVRVYKHGNPDDWSKLVDPNARVVYGDKEIHGREDAMSFMKKLRNQADSIKVKDYKVKNGRVDVVVIIVVNGRHATLQFTIQFHNGKATDVKFDPKQWHELQK | 1.28 |
| DHEVAKTMMEEWQKALENGDDKKLKELYDPDGEWEADDEQDQGTEVIEKLMEKVKKQGLKFQVRKAKVEGDKFTVVYDLHVGNKTATFEVEVHVEGGRIKKVKAKADEEAKKLITEG | 1.98 |
| DHEVHKLFDDFLHAEETGNEEQLTELVDENAQIQVGDKEVHGRDHINKMHADLRRTMDLKLKDYKVNNNGNNVDVDMKYINEDNGKPSKVRMRAIYTFQNGRIKNVHQNRDQ | -0.366 |
| DHHARTQAEHLLEALRNGNEDQLMKLIDPNARFRYGDKEVHGSEQFREQVHTLKREIRMDVKEYRFTVEGNRLVVKVTAILDTNGKPDTRDVDNHAIVHNGKIKQFTVDNKS | -0.134 |
| DHHDRKLFKHLITALRDGDEDKVKKNVDPNVKIDIGDTTWNGREQWAKDVREKREEMRVDIKLKRLTASNGRVTAKLRVRNKHDGRPHQHEFTVEFRRSNGRWKEIHVDDDK | -0.008 |
| DHHHARELLTRVIRALITGDEKKVADQIDPNAEFQYGDKTFHGRDQVRRFVKEWKKHVDHVELKTYDARGDKAKAIFVVDHNGHKKQVVLQLKVENGRVKSIRITDG | 1.74 |
| DHKAVEMVEQMWKNLNEGDFKKFTRLIDKDVKYVYGDRRVEGREELVNRFHRKMREMRFQIVRMSLTDHGDKVVVNYTVQFNKNGRPDRKVQRLLVKVENGTIKELRVQEHQ | 1.62 |
| DHKDQSKMVKDLNRVMQHGDSKQMRSMVDENAEVQYGDNQVHGRDQIREMEKRIRRRVDKVKFDSVDVEGNKVRIQYVVNVNGQNIEQVLHVTFKNGKIKNQEYRVRDPRLEKQFKS | 0.237 |
| DHKEARDVAQTMMHLLKHGDFEQIVRNADPNAHFVVGDKEYHGRDNLRKVLKRLHDQVDHISFRTYKVDEDTAKLDATVQINGRNYRMDVLVHFHNGRIKDLNIKVTDEDTQREADK | 2.08 |
| DHKEETKKKDEARRVLETNDPRKKLKLMDPNARANVGDKRYHGREELKRRADEERKRVDHAEVKRVEANGDHIIVDFVFVVNGKTKRNSLNINMHNGRVKEVNVESR | -0.143 |
| DHKEHAEKFAQQLDEAHKKNDPRQFLRLMDKDVRVSVGDKTVHGKENIRKQLEDLTKQADSIEFKVKSIRVTGDKVRLEFEVVYRHNGRHSRQTVVMYLKLHNGRAVIKSVQVK | 0.159 |
| DHKELKKYLEQVEKNDFDKLKKNVDEDARVNYGNKTWHGREQVQKYWDDLKKRIDHFDVTHMTVKGDKLHYIVRMNVNGQNFEHKVVIEIQNGKIKQVDARYRDEKQKEKLEKVAD | 0.868 |
| DHKHLQEQARRLVDALVTGDPEEAANLADPNARARIGDKTIHGREQFRNAMQRFSNQADHVQVDHFTVQGDKVQVKMSINVNGQSFDVVMVARMDNGHIRHIRFDPDQIRQVQG | 0.052 |
| DHKLHHQLHRLIKALQTGDPDKIRELVDPNVEFVVGEKRYKGREDYVTDFKERLDHIRLDNDVRDVEVHGNKMRANIQTEVQDDGQPRTYQVRLDASAHNGKVKSLKVDKKP | -0.059 |
| DHKQEATKNLKKFEDVMKTNDPEKAKNLADENVRVQVGDKTVHGKEKMVSTMLEEMRKVDHFSVHLQEVSFHGDKLNLSYEFVLNQNGKERKDVRVFHAANHNGRFLVEELHQG | -0.322 |
| DHNDHARRLFEQWVQAIEHNDPDQIRKNLPPNVKVTIGDKTISGRENVVRTVKRELHRVDHIRIQLDHVEVQGDKIVLRANVRQDHNGQNRHFTLRLVANTFNGREQFIDIQLN | -0.121 |
| DHQASEKLSQLWKALNTGNPEQFSKNADPHVRHHVGDTSIQGREQFNEQIKREQKEMRVQIQVQSIHVRGDKIRVRAVYTFHINGQPRKDTFVAKFVVKNGRIKKASIRIDPRKVKERNS | 0.11 |
| DHQDARKVRKNFEDNNFESFKSMFDENAEVRVGDKELHGKENIRDQIRKEKEQIDHVQYRSFHVQGEKVDLKYEFQVNGRHIDVRASAELKNGRIKTHSVEVTTEEDKKLLKEVLQ | -0.271 |
| DHQELAEKWFRTFVTNQERGDEESLVKMADKDVRLHIGDKTIHGREQFHHWIQELRRRVDHQSMTVRHIDVQGDKIRIDAEAVFNVNGRNDKFKIDIEAEIQGDKVVLKRIIFN | 1.63 |
| DHQESAHRLHNTLKTIWSENDPDKYSELIDENVHVDVGDKKFRGRDEAKKLAEHIMRRADHIEIRLTSIDVHGNTIRIVVELNFNHDGTSSSVTVVVVLENHNGNFRVKKIRES | 0.017 |
| DHQVVRSFMDVLETGDWDKLKDLVDPNAKMFYGNKDLTGRDAQTHFSEVMKRRVDEIKIDSYDMKGDSAWADFVLVFNGVEIRFILRVQFHNGNVISMRFEVTDPKQKTQLDRAAS | 0.714 |
| DHRAEEAFRRWEEALKTGDPDQAKEQVDPNARFEYGDESIRGMDNVQKWLRTQMEKQRIDVKVKDVKTRPGHVEISAHVVWEHNGTPNSATFVQQNTATGDDVKHVKVQEHK | -0.27 |
| DHRAFELAKNILEAIRTNDPDTVKHQLDKNATLRYGEFEVHGREDASRFVETLIRKMRVEFDIKDYHVHGDSAVMDADVKVERNGRPDTRKLNVNVNVHNGKMSHIVFELRG | 0.693 |
